Reference: publication PMC8373123

Target: human NPC1L1 (Niemann-Pick C1-like 1), wild type, C-terminal Flag tag (human) (UniProt Q9UHC9)
Assay: cryo-EM structure

stoichiometry N: 2
Substance: human NPC1L1 (Niemann-Pick C1-like 1), wild type, C-terminal Flag tag (from UniProt Q9UHC9-2 22-1332) (natural protein)
